Measurements taken from the DeepSol protein solubility set.

Test: soluble on expression in E. coli; label from the status in PepcDB or PDB records

Row | Sequence | soluble on expression in E. coli
1 | MAVLYLVGTPIGNLADITYRAVDVLKRVDMIACEDTRVTSKLCNHYDIPTPLKSYHEHNKDKQTAFIIEQLELGLDVALVSDAGLPLISDPGYELVVAAREANIKVETVPGPNAGLTALMASGLPSYVYTFLGFLPRKEKEKSAVLEQRMHENSTLIIYESPHRVTDTLKTIAKIDATRQVSLGRELTKKFEQIVTDDVTQLQALIQQGDVPLKGEFVILIEGAKANNEISWFDDLSINEHVDHYIQTSQMKPKQAIKKVAEERQLKTNEVYNIYHQIS | not soluble
2 | FRKIAQAYNLDLLVHHANAQLKQLVRRYRLKRGGSMLGLLVMDTEMGDELRSVHSLSGGETFLVSLALALGLASMASSTLRIESLFIDEGFGSLDPESLQLAMDALDGLQAQGRKVGVISHVQEMHERIPVQIRVRRQGNGLSTI | not soluble
3 | AHHHHHHGSDLERALNAFHSMKVNQLTPPCSQMPIVEEDSPIIDVLKLLRTRHHVWVVNNRKDMKLVGIIRYLDIIDIFLPPKGARLGAVSSVFKSILSGAEKAGDIMERNFLTINEDATVLEALEKMKRYKIQILALIDEEGKLKGEISLRILINEFLRLIRVGGG | soluble
4 | MSLTPRFIDLHTHTTASDGSDSPADLVRKATEAGLAAVAVTDHDTVAGLDEAVAMGHETGIEVVRGCELGVRSEYGEIHILGLWLPEKPETLLDAMKELRRHRNERNERIVDNLRTLGMDITYEEVRALSGGVSVGRPHIALALLRHGYIRTPQEAFDRFIGPGAPAYAPKKVFSPAEGVRLLASCGATVAIAHPMLLRCPEEWLDDTVADLKVAGLDAIEAYHSEHSHKDERRCVDIADRHGLVLTGGSDYHGKAKPAISLGRGREGHHHHHH | not soluble
5 | MSLAASRRRNTYSQKVNMSNNVRADSLSLLLFTLRSGKLMAINLLKVSEIIPCPALTHLPESHPHVKGIATLRGSSLAVIDLSRAIGERPLADPDGGCLIVTDVSRSKQGLHVQAVSKIVHCLTTDIRPPPYGSSSKSFITGVTQVDGVLVQVLDIEKVIHGIAPAQIVVQSTELAKEDAEVLSKARILVVDDSQVALQQSIITLRNLGIECHTARSAREAIDVLLDLQGTARQINVVVSDIEMSEMDGYALTRTLRDTPDFSDLYILLHTSLDSAMNSEKSQIAGANAVLTKFSSPELTKCLIEAARTVVAQGEGHHHHHH | soluble
6 | MSLCRVLRVKHSSYYDWLSRDISEQQIHRNHCELLVKAAHSETHERYGVERLHAHLSEQGHNISPYMVRSIKEEYSIKCRRHKRFKVTTDSNHNKLVYPNVLDQEFDASRPNQAWASDITYIWTLEGWLYLAGVKDLYTKELVGYAINKRMTADLVCKALNMAIKNKQPSKGLVVHSDRGSQYCSHAYHKIIKQHQFTGSMSGKGNCFDNAPIESFWGILKNELVYHQDYKTRFAAIRDIIGYIELYYNQTRIQKGLGYKSPRQVWFDYYRQAAEGHHHHHH | soluble
7 | MPITIGNGFLKSEILTNSPRNTKEAWWKVLWEKIKDFFFSTGKAKADRCLHEMLFAERAPTRERLTEIFFELKELACASQRDRFQVHNPHENDATIILRIMDQNEENELLRITQNTDTFSCEVMGNLYFLMKDRPDILKSHPQMTAMIKRRYSEIVDYPLPSTLCLNPAGAPILSVPLDNIEGYLYTELRKGHLDGWKAQEKATYLAAKIQSGIEKTTRILHHANISESTQQNAFLETMAMCGLKQLEIPPPHTHIPIEKMVKEVLLADKTFQAFLVTDPSTSQSMLAEIVEAISDQVFHAIFRIDPQAIQKMAEEQLTTLHVRSEQQSGCLCCFLLEHHHHHH | soluble
8 | MTRYLDISLGIVRDYYEAAPVKVVFVKDHPRLPTPGGIINARRGDEVELPRWQARMLREKGYVEYKEKIVDIDYVNLVHYHEVKKSAANSLLGVPSDFYLRVKELVEDLDRRIRENPGYMLFQDRENVERAIMQISERRLVKMMRLVLSGGGEEVRERLTVEENLVYSMAEEVVKGWKEYVKSLVGRR | not soluble
9 | MAQSTQEAEGEQQRRQAVLRERYLSFLQKSADKPATIEMCERTTVTATIKAFQPSSEHVIVGTVAVA | not soluble
10 | MGSDKIHHHHHHMIIDLSQLPEPEVIENLDFETIYQELLGDFREAMAGEWTAEVESDPVLKLLQLAAYRELLLRARINDAARAVMLAYASGADLDQIGAGFNVQRLLIRPAQPEAVPPVEAQYESDKSLRNRIQLAFEQLSVAGPRNAYIAHALGADGRVADASATSPAPCEVLISVLGVEGNGQAPEAVLQAVRLALNAEDVRPVADRVTVRSAGIVPYQVKAQLYLFPGPEAELIRAAAEASLRDYISAQRRLGRDIRRSALFATLHVEGVQRVELQEPAADVVLDETQAAYCTGYAITLGGVDE | not soluble
11 | MGSDKIHHHHHHMNKRNLLIAIPALCSGYLHGQTQPASPNVIYILMDDLGYGDIGCFGQDKIETPHIDRLCSEGIKLTQHYSGSPVSAPARCVLMTGMHSGHAQIRFNNELAERGAVNNYDSVYVHKELEGQFPLQANTMTIGRMMQQAGYTTGCFGKWGLGYPGSEGTPNKQGFDRFYGYNCQRQSHTYYPPFLYNDEERVYLSNKVTDPHRSPLDKGADPNDPASYAKYTQKEYANDLIFDELMGFVDANKRKPFFLMWTTPLPHVSLQAPERWVQHYVKKFGDEKPYTGQAGYLPCRYPHATYAAMISYFDEQIGQLIEKLKAEHLYENTLIVFTSDNGPTFNGGSDSPWFNSGGLFNSAYGWGKCFLHEGGIRVPAIITWPGKIKPGTQSDHICAFQDVMPTLAELAGITCPPTDGISFLPTLLGKKGKQKEHTYLYWEYPDPRIGNKAIRMGKWKGIITDIRKGNTQMQLYNLETDIREEHDVAAQHPDIVKRFERLMKEARNGPDF | not soluble
12 | MLRSTSDRFRWSSLSLAIACTLPLATQAADTTTTQTSSKKHSTDTMVVTATGNERSSFEAPMMVTVIEGNAPTSQTAATAADMLRQVPGLTVTGSGRTNGQDVVMRGYGKQGVLTLVDGVRQGTDTGHLNSTFLDPALVKRIEIVRGPAALLYGSGALGGVIAYETVDAADMLQPGQNSGYRVYSSAATGDHSFGLGASAFGRTDDLDGILSFGTRDIGNIRQSNGFNAPNDETISNVLAKGTWQIDSIQSLSANLRYYNNSAIEPKNPQTSAPSSTNVMTNRSTIQRDAQLRYNIKPLDQEWLNATAQVYYSEVEINARPQGSAEEGREQTTEGVKLENRTRLFIESPASHLLTYGTETYKQEQTPGGATESFPQAKIRFSSGWLQDEITLRDLPVSILAGTRYDNYSGSSDGYADVDADKWSSRGAISITPTDWLMLFGSYAQAFRAPTMGEMYNDSKHFAIPIRPGLTLTNYWVPNPNLKPETNETQEYGFGLRFSDLLMAEDDLQFKVSYFDTKAKDYISTRVDMQAMTTTSVNIDQAKIWGWDASMSYKTALFNWDLAYNRTRGKNQNTDEWLDTINPDTVTSIVDVPVANSGFSVGWIGTFANRSSRVSSSTPQAGYGVNDFYVSYKGQEAFKGMTTTMLLGNVFEKEYYTPQGIPQDGRNVKFFVSYQW | not soluble
13 | MGSDKIHHHHHHMDRKMNFVMISPHFPANFETFAHRLYENGINTLGIADTPYEQLSQGLRDHLTEYYRVDNMEDYDQVYRAVAYFAHKYGRIDRIESHNEYWLELDAHLRTDFNVFGYKNEDMLSIKTKARMKEIFRKTGIKVARGRVFTSTEDARALTKELGFPVIIKPNSGVGASDTYKIKSAEELEDFFGYQNPTVDYIMEEFIDGDIVTFDGLTDHEGNIVFYSSLEYSEAVLDTVEKDNDMFYYVPRDISPELIKLGEQCVEAFNVKERFFHFEFFRIKKTKDLMALEVNCRPPGGLTIDMWDYANDFDVFNEYAHIVKDNRFEAHITRPYNVVYIARKANKHYAHSIEDIETKFGHHIIEIESVPGIFAKIMGEVGILARTETMNEMRDIICFAHAKI | not soluble
14 | MGSDKIHHHHHHMSAALSCGTIHGVGLGPGAPDLLSVRSDRLVRGARHVAYFRKAGRPGQARRIVEGMLRPDVIEIPMEYPVTTEIPLSDPRYNDCLSAFYAECTQRLVMLAQAGEDVVVLCEGDPFFYGSFMHLHTRLAGTVPVAVVPGITGMAGAWNATGIPITWGDDVLTIAMATLPEDELVRRIRDTDALVVMKIGRNLPKLRRAVAAAGREDAAWLVEHAAMPGQRVTRLIEAETVTPYFSILLIHGQGRRP | not soluble
15 | SLDVCRGMLCGFGAVCEPSVEDPGRASCVCKKNVCPAMVAPVCGSDASTYSNECELQRAQCNQQRRIRLLRQGPCGSRDPCANVTCSFGSTCVPSADGQTASCLCPTTCFGAPDGTVCGSDGVDYPSECQLLRHACANQEHIFKKFDGPCDPCQGSMSDLNHICRVNPRTRHPEMLLRPENCPAQHTPICGDDGVTYENDCVMSRIGAARGLLLQKVRSGQCQT | soluble
16 | MKTFKAVRFQIVNEHGRIIEYELEDGVIINKEESGTGWLLEIVISNEHYETFKEYQDNEQLLDIRVVITRPANDPALFESTVKSIKNFKTTMSIVFECHIYTLRQQYAESLLEQLIDDGLSGEELKKSFNRMMQSKPKLKDEKLEE | not soluble
17 | MGSDKIHHHHHHMPYPKKVTIKEVGPRDGLQNEPVWIATEDKITWINQLSRTGLSYIEITSFVHPKWIPALRDAIDVAKGIDREKGVTYAALVPNQRGLENALEGGINEACVFMSASETHNRKNINKSTSESLHILKQVNNDAQKANLTTRAYLSTVFGCPYEKDVPIEQVIRLSEALFEFGISELSLGDTIGAANPAQVETVLEALLARFPANQIALHFHDTRGTALANMVTALQMGITVFDGSAGGLGGCPYAPGSSGNAATEDIVYMLEQMDIKTNVKLEKLLSAAKWIEEKMGKPLPSRNLQVFKSS | not soluble
18 | MFQRLFGRERHANRAITDALYAQIVAAARQTVFYSHWNVPDTPLGRFEMLSLHMFLFQHRLRGEGGVAQEIAQVLIDEFFLDVDHSLRELGIGDVGVPKRMKKLAKMFYGRTAAYDDALDRNDRDGLTAALARNVRPDAGTWPEAPQLADYVADACRQLAAQPSQSIVSGTAVFPLAKGGALEHHHHHH | not soluble
19 | MKKYLLSFLLSMILTLTSHAESNPDPTTYPDVELSPPPRISLRSLLTAQPIKNDHYDSHNYLSTHWELIDYKGKEYEKLRDGGTLVQFKVVGAAKCFAFPGEGTTDCKDIDHTVFNLIPTNTGAFLIKDALLGFCMTSHDFDDLRLEPCGISVSGRTFSLAYQWGILPPFGPSKILRPPVGRNQGS | soluble
20 | MNALSGLQVITRRPDKRSASGVTKKCRKSLKTAPDTKTVFKGSFASHYVDKSSQVNPGTHITVRGSIHGEVSIKKMLKGSRCRTAL | not soluble
21 | MIGVVIPAHNEEQLLADCLRCALKAASHPELNEDVAILVVLDSCSDGSLDIARQFAVQHLQLQVRNVGRARAAGAQLLLQAGARWLSCTDADSRVPEDWLVAQLALGADAVCGTVTVDRWSESFEPQARIRYHDAYQDSDGHRHIHGANLGISAAAYVRAGGFEALACHEDVQLVRQLQRCGASIAWSRHPQVITSGRLDSRAKGGFGDYLKGLNEPCAGLLEHHHHHH | not soluble
